Measurements from the nanobody polyreactivity screen of Harvey et al. (2022).

Assay: yeast display, Sf9 membrane polyspecificity reagent, FACS + sequencing; frameworks hold sequencing errors
How it was run: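 Galactose induction of a Saccharomyces cerevisiae BJ5465 synthetic nanobody display library ran 36–48 hours. The cells were then stained for 1 hour at 4 °C with 10% biotinylated, detergent-solubilized Sf9 membrane reagent, pulled down on streptavidin microbeads and FACS-sorted into low and high (top ~1%) gates on expression and reagent-binding fluorescence. Labels for polyreactivity follow the gate of origin.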

Sequence	polyreactivity (PSR sort gate)
QVQLVESGGGLVQAGGSLRLSCAASGRTFYVYAMGWYRQAPGKERELVAAITKNGGNTYYADSVKGRFTISRDNAKNTVYLQMNSLKPEDTAVYYCAADKQGFLISYTGYDYWGQGTQVTVSS	low polyreactivity
QVQLVESGGGLVQAGGSLRLSCAASGRTFSGYAMGWYRPAPGKERELVATISSGGRTNYADSVKGRFTISRDNAKNTVYLQMISLKPEDTAVYYCNVRWWGRGPWSDYWGQGTQVTVSS	high polyreactivity
QVQLVESGGGLVQAGGSLRLSCAASGSTFYYYAMGWYRQAPGKVRELVATISWSGDSTYADSVKGRFTISRDNAKNTVYLQMNSLKPEDTAVYYCATSGDWWGFRYVYWGQGTQVTVSS	low polyreactivity
QVQLVESGGGLVQAGGSLRLSCAASGSTIIRNAMGWYRQAPGKERELVAAISTSAGRTHYADSVKGRFTISRDHAKNTVYLNMNSLKPEDTAVSYCATRGKGHYYYWGQGTKVTVSS	high polyreactivity
QVQLVESGGGLVQAGGSLRLSCAASGRTFIAYAMGWYRPAPGKERALVAAITSSGGSTYYADSVKGRFTISRDNAKNTVYLQMNSLKPEDTAVFYCATDIYESPYFYYSYYYWGQGTQVTVSS	low polyreactivity
QVQLVESGGGLVQAGGSLRLSCAASGYIYYYNGMGWYRQAPGKERELVADISRRGGSTYYADSVKGRFTISRDNAKNTESLQMNSLKPEDTAVYYCNARARSAFSYDSWGQGTQVTVSS	high polyreactivity
QVQLVESGGGLVQAGGSLRLSCGASGSISKINAMGWYRQARGKERELVAAINTGDSTYYADSVKGRFTISRDNAKNTVYLQRNSLKPEDTAVYYCAAEGSPTGYDYWGLGTQVTVSS	low polyreactivity
QVQLVESGGGLVQAGGSLRLSCAASGSIFGYAMGWYRQAPGKERELVAAIRWGGGSTYYADSVKGRFTISRDNAKYNVYLQMNSLKPEDTAVYYCAARVGRQWYDYWGQGTQVTVSS	high polyreactivity
QVQLVESGGGLVQAGGSLRLSCAASGSTFYFYAMGWYRQAPGKEREFVAAITASGGSTYYADSVKGRFTISRDNAKNTVYLQMNSLKPEDTAVYYCAARFSYWKTKRAYDWGQGTQVTVSS	high polyreactivity
QVQLVESGGGLVQAGGSLRLSCAASGRTFPYNAMGWYRQAPGKERELVAAISSGGTTNYADSVKGRFTISRDNAKNTVYLQMNSLKPEDTAVYYCAADSVDSSQFRRDYWGQGTQVTVSS	low polyreactivity
QVQLVESGGGLLQAGGSLRLICAASGFIVRRYAMGWYRQAPGKARELVAAITSGGSTYYADSVKGRFTISRDNAQYTVYLQFNSMKPVDTADYYCNAYFTGKWYDYWGQGTQVTVSS	high polyreactivity
QVQLVESGGGLVQAGGSLRLSCAASGSTFHSYAIGWYRQAPGKEREFVAAITIRGGSTYYADSVKGRITISRDNAKNTVYLQMNSLKPEDNAVYYCAALVWGSYARWRYYCGQGTQVTVSS	high polyreactivity
QVQLVESGGGLVQAGGSLRLSCAASGSTFYAYDMGWYRQAPGKEREWVAAISRSGGNTYYADSVKGRFTISRDYAKNTVYLQMNSQKPEDTAVYYCNARSSVYGHRKGSARIPRYDYWGQGTQVTVSS	high polyreactivity
QVQLVESGGGLVQAGGSLRLSCAASGSIFDSNAMGWYRQAPGKETELVASITSDGDTYYADSVKGRFTISRDNAKNTVYLQIKSVKPEDTAVYYCAAYVPYSGLDYWGQGTQVTVSS	low polyreactivity
QVQLVESGGGLVQAGGSLRLSCAASGSIFWSNAMGWYRQAPGKEREFVATITNGTTTNYADSVKGRFTISRDNAKNTVYLQMNSLKPEDTAVYYCAVTGVYVKYDYWGQGTQVTVSS	low polyreactivity
QDQLVDSGGGIVQAGGILSLSCAASGRNIIYNAMGWYRQAPGKERELVAAINRSGVSTHYADSVKGRFTISRDNAKNTVYLQMTSLKPEDTAVYYCASTVYGARSYDYWGQGTQVTLSS	low polyreactivity
QVQLVESGGGLVQAGGSLRLSCAASGGTFYYYAMGWYRQPPGKERELGAAITGTGGRTYYADSVKGRFTISRDNAKNTVSLQMNSLKPEDTAVYYCATDALYGSGYDYWGQGTQVTVSS	high polyreactivity
QVQLVESGGGLVQAGGSLRLSCAASGSTFVTNDMGWYRQAPGKERDLVADISWSGGDTYYADSVKGRFTISRDNAKNTVYLQMNSLKPEDTAVYYCAARPDQGLAYSPLPWYNYWGQGTQVTVSS	low polyreactivity
QVQLVESGGGLVQAGGSLRLSCAASGFTFPYNAMGWYSQARGKERELVAAISRSGTRTYYADSVKGRFTISRDNAKNTVYLQMNSLKPEDTAVYYCNARAAGYSRRGPGFDYWGQGTQVTVSS	high polyreactivity
QVQLVESGGGLVQAGGSLRLSCPASGRTFYKYAMGWYRQAPGKEREFVADISSRGGSTYYADSVKGRFTISRDNAKNTVYLQMNSLKPEDTAVYYCAKRDRAAARAYYYWGQGTQVTVSS	high polyreactivity
QVQLVESGVGLVQAVGSLRLSCAASGRIFPAYVMGWYRQAPGKERELVATIDNGGGTYYADSVKGRFTISCDNAKYTVYLQMNSLKPEDTAVYYCARDRHVRWGLKRDYWGQGTQVTVSS	low polyreactivity
QVQLVESGGGLVQAGGSLRLSCAASGFIFIQNDMGWYRQAPGKEREFVASISKDGGRTYYADSVKGRFTISRDNAKNTVYLQMNSLKPEDTAVYYCNTYPRGNWGNFVEQDYDYWGQGTQVTVSS	low polyreactivity

Sequence	polyreactivity (PSR sort gate)
QVKLVESGGGLVQAGGSLRLSCAASGFIFSNNAMGWYRQAPGKEMELVAAITWNGGRTYYADSVKGRFTISRDNAKNTVYLQMNSLKQVDTAVYYCAAGRYYPLFYYWGLGTQVTVSS	high polyreactivity
QVQLVESGGGLVQAGGSLRLSCAASGITFWNYAMGWYRQAPGKERELVAAISYSGGSTYYADSVKGRFTISRDNAKNTVYLQMNSLKPEDTAVYYCAATLPTNWVRYEYWGQGTQVTVSS	low polyreactivity
QVQLVESGGGLVQAGGSLRLSGAASGSTFRYYVMGWYRQAPGKERELVAGISYRGGTTYYADSVKGRFTISRDNAKNTVYLQMISLKPEDTAVYYCNAETAAAQASFDRLYVLLDYWGQGTQVTVSS	low polyreactivity
QFQLVESGGGLVQAGGSLRLSCAASGSIFVYNVMGWYRQAPGKERELVAAITYSGGGTYYADSVKGRFTISRDTAKNTVYLQMNSLKPEDTAVYYCAAAYPSVAYSYRYDYWGQGTQVTVSS	high polyreactivity
QVQLVESGGGLVQAGGSLRLSCAASGITFSRNAMGWYRQAPGKERELVAVISTRGGRTYYADSVKGRFTISRDNAKNTVYLQMNSLKPEDTAVYYCAASPDPYWRRMDYWGQGTQVTVSS	high polyreactivity
QVQLVESGGGLVQAGGSLRLSCAASGSTIPYNTMGWYRQAPGKERELVAAISSSCRSTYYADSVKGRFTISRDNAKKTVYLQMNSLKPEDTAVYYCNAQIVASYQARRYYYWGQGTQVTVSS	low polyreactivity
QVQLVESGGGLVQAGGSLRLSCAASGFIIYKYAMGWYRQAPGKERELVAAISWSGGSTYYADSVKGRFTISRDNAKNTVYFQMNSLKPEDTAVYYCAARQWSQGWYDYWGQGTQVTVSS	high polyreactivity
QVQLVESGGGLVQAGGSLRLSCAASGNIFAPNAMGWDRQAPGKERELVAAISRSGGSTHYADSVKGRFTISRDNAKNTVYLQMNSLKPEDTAVYYCAAGWYGRYTSKMGYWGQGTQVTVSS	high polyreactivity
QVQLVESGGGLFQAGGSLRLSCAASGFIFYPNAMGWYRQAPGKEREWVAAITDSGGSTYYADSVKGRFTISRDNAKNTVYLQMNSLKPEDTAVYYCNADYGGYYWTWGYDYWGQGTQVTVSS	low polyreactivity
QVQLVESGGGLVQAGGSLRLSSAASGRIFRHYAMGWYRQAPGKERELVASITRGDNTYYADSVKGRFTISRDNAKNTVYLQMNSLKPEDSAVYYCAAVFYSYSSASEYYYWGQGTQVTVSS	high polyreactivity
QFQLVESGGGLVQAGGSLRLSCAASGGTFDPYAMGLYRQAPGKERELVAAINYGGGSTYYADSVKGRFTISRDNAKNTVYLQMNSLKPEDTAVYYCAADGGRLTTSQLAQWEYDYWGQGTQVTVSS	low polyreactivity
QVQLVESGGGLVQAGGSLRLSCSSSGLTLYRYAMGWYRQAPGKERELVAGISWGGGSTYYADSVKGRFTISRDNAKNTVFLQMNSLKPEGNAVYYCAAGRLLYIPRYYYWGQGTQVTVSS	high polyreactivity
QVQLVESGGGLVQAGGSLRLSCAASGSIFAVNAMGWYRQAPGKERELVAAISWNGGSTYYADSVKGRFTISRDNAKNTVYLQMNSLKPEDTAVYYCATVRYKYYWSYYRYGYWGQGTQVTVSS	high polyreactivity
QVQLVESGGGLVQAGGSLRLSCAATGSTVDFYAMGWNRQAPRKERELVAAISWSAGSTYYADSVKGRFTISRDNAKNTVYLQMNSLKPEDTAVYYCNADYWGQGTQVTVSS	low polyreactivity
QVQLVESGGGLVQAGGSLRLSCAASGLTFDRYVMGWYRQAPGKERELVAGISTGGSSTYYADSVKGRFTISRDNAKNTVYLQMNSLKPEDTAVYYCAAKLSYWSRHNYWGQGTQVTVSS	high polyreactivity
QVQLVESGGGLVQAGGSLRLSCAASGRIFPIYAMGWYRQAPGKERELVAAISRTDGTTYYADSVKGRFTISRDYANNTVYLQMNSLKPEDTAVYYCAADYLRAPYYQYEYWGQGTQVTVSS	low polyreactivity
QVQLVESGGGLVQAGGSLRLSCAASGSTFILNAMGWYRQAPGKERELVATISSSDTSTYYADSVKGRFTISRDNANNTVYLQMNSLKPEDTAVYYCNADYYTTSYLQRVYHYGVEYDYWGQGTQVTVSS	low polyreactivity
QVQLVESRGGLVQAGGSLRLSCSASGIIFEYYAMGWYRQAPGKERELVAAISSDTSTNYADSVKGRFTISRDNAKNTVYLQMNSLKPEDTAVYYCNADAYYDTYGICVGTDYDYWGQGTQVTVSS	low polyreactivity
QVQLVESGGGLVQAGGSLRLSCAASGINFVLYAMGWYRQAPGKERELVAAITSGGRTYYADSVNGRFTISRDNAKNTVYLQMISLKPEDTAVYYCADNYFTQRLWFDYWGQGTQVSVSS	high polyreactivity
QVQLVESGVGLVQAGGSLRLSCAASGLTFDYNAMGWYRQAPGKERELVARISRSGGTTYYADSVKGRFTISRDNAKNTVYLQMNSLKPEDTAVYYCAAERYYVGAYGYWGQGTQVTVSS	high polyreactivity
QVQLVESGGGLVQAGGSLRLSCAACGSTFNGYTMGWYRQAPGKERELVAAISKSGGRTYYADSVKGRFTISRDNAKNTVYLQMNSLKPEDTAVYYCNKLTQSSYGWGQGTQVTVSS	high polyreactivity
